Measured values reported in the supplement of paper PMC9876800.

System: peptide library, one residue held at a place counted from the S/T acceptor
Assay: relative phosphorylation of the sub-library (ratio to the mean residue at this position); higher = residue favoured
Conditions: human
In short: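 Spots on streptavidin membranes were phosphorimaged and quantified by densitometry to measure phosphorylation of biotinylated degenerate peptide sub-libraries by purified recombinant kinases, human or orthologue constructs. The reactions ran in 384-well plates for 90 min under kinase-specific conditions, with peptides at 50 μM and 50 μM ATP spiked with γ-32P-ATP. Relative sub-library phosphorylation is the ratio to the mean residue at that position.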

MYLK2, construct: Full length, sequence (Q9H1R3 whole entry, looked up): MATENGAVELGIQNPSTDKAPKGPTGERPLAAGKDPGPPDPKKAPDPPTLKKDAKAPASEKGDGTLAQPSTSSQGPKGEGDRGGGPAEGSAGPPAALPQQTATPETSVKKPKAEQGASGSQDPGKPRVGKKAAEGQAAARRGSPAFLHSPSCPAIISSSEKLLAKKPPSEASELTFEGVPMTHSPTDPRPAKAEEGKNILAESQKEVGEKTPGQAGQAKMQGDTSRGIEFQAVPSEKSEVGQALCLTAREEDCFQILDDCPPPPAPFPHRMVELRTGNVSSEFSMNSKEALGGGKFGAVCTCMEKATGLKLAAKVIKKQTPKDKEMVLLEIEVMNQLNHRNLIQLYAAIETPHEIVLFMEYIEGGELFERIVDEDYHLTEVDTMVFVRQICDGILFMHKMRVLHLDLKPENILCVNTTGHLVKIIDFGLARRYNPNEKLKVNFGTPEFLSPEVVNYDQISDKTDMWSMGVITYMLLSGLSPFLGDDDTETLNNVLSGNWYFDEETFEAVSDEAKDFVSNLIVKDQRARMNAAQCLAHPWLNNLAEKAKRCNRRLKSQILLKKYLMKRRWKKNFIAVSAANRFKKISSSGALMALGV
RIPK3, construct: aa1-313, sequence (Q9Y572 1-313, looked up): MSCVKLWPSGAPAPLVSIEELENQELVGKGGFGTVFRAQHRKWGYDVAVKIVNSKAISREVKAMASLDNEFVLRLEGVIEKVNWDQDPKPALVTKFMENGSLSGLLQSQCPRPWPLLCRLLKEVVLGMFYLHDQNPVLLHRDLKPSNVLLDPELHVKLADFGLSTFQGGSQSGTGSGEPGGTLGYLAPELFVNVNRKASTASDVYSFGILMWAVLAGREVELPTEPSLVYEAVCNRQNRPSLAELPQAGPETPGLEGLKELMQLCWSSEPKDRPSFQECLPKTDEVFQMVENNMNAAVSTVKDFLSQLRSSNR

RIPK3, construct: aa1-313 (from UniProt Q9Y572)
relative phosphorylation
Conditions | at +1 | at +2 | at +3 | at +4 | at -1 | at -2 | at -3 | at -4 | at -5
A fixed | 0.854 | 0.673 | 0.422 | 1.03 | 0.762 | 0.87 | 1.02 | 1.03 | 1.16
D fixed | 0.247 | 0.425 | 0.266 | 0.816 | 0.678 | 0.699 | 0.711 | 0.73 | 0.818
E fixed | 0.459 | 0.727 | 0.224 | 0.625 | 0.421 | 0.515 | 0.692 | 0.766 | 0.668
F fixed | 2.07 | 0.902 | 3 | 1.07 | 0.662 | 0.66 | 0.785 | 1.1 | 1.04
G fixed | 0.895 | 0.746 | 0.646 | 1.21 | 0.466 | 1.03 | 1.65 | 1.17 | 1.13
H fixed | 0.695 | 1.3 | 0.615 | 0.944 | 1.28 | 1.29 | 1.19 | 1.05 | 1.22
I fixed | 1.6 | 1.43 | 1.67 | 0.998 | 1.08 | 0.747 | 0.832 | 0.949 | 1.04
K fixed | 1.02 | 1.36 | 0.424 | 1.24 | 2.04 | 0.953 | 1.37 | 1.36 | 1.43
L fixed | 0.935 | 1.61 | 2.54 | 0.991 | 1.27 | 1.2 | 0.922 | 0.873 | 0.912
M fixed | 1.62 | 1.05 | 1.58 | 0.989 | 1.1 | 0.922 | 0.977 | 1.13 | 0.958
N fixed | 0.493 | 0.977 | 0.474 | 0.915 | 1.21 | 1.15 | 0.946 | 1.03 | 0.848
P fixed | 0.148 | 0.548 | 0.253 | 1.22 | 0.783 | 1.73 | 0.992 | 0.862 | 0.894
Q fixed | 1.32 | 1.04 | 0.399 | 0.938 | 0.888 | 0.847 | 0.979 | 0.818 | 0.826
R fixed | 1.76 | 1.31 | 0.669 | 1.15 | 1.73 | 2.22 | 1.48 | 1.23 | 1.12
V fixed | 1.26 | 1.14 | 0.661 | 0.863 | 1.11 | 0.697 | 0.732 | 0.969 | 0.991
W fixed | 0.81 | 0.603 | 1.68 | 1.11 | 0.623 | 0.727 | 0.944 | 0.999 | 0.986
Y fixed | 0.822 | 1.16 | 1.48 | 0.898 | 0.893 | 0.736 | 0.778 | 0.937 | 0.966
pThr fixed | 0.844 | 1.28 | 0.557 | 1.02 | 1.1 | 1.32 | 1.22 | 1.27 | 1.06
pTyr fixed | 0.422 | 0.937 | 0.518 | 0.722 | 0.785 | 0.648 | 0.892 | 0.859 | 0.733

PIM3, construct: Full length (from UniProt Q86V86)
relative phosphorylation
Conditions | at +1 | at +2 | at +3 | at +4 | at -1 | at -2 | at -3 | at -4 | at -5
A fixed | 1.07 | 0.944 | 0.735 | 0.954 | 0.952 | 0.672 | 0.676 | 0.984 | 1.16
D fixed | 0.918 | 0.986 | 1.47 | 1.17 | 0.769 | 0.637 | 0.718 | 1.07 | 0.989
E fixed | 1.44 | 0.858 | 1.26 | 1.11 | 0.996 | 0.621 | 0.674 | 1.14 | 0.697
F fixed | 0.469 | 0.684 | 0.673 | 0.752 | 0.608 | 0.761 | 0.393 | 0.62 | 0.693
G fixed | 3.27 | 0.888 | 1.21 | 1.37 | 0.819 | 0.746 | 0.848 | 1.45 | 1.25
H fixed | 0.811 | 1.84 | 1.2 | 1.03 | 1.02 | 2.91 | 0.985 | 1.1 | 1.32
I fixed | 0.715 | 0.499 | 0.602 | 0.728 | 0.454 | 0.427 | 0.249 | 0.628 | 0.533
K fixed | 0.959 | 1.23 | 1.24 | 1.09 | 1.78 | 1.14 | 1.64 | 1.24 | 1.72
L fixed | 0.571 | 0.624 | 0.587 | 0.823 | 0.693 | 0.473 | 0.309 | 0.567 | 0.52
M fixed | 0.84 | 0.648 | 0.733 | 0.827 | 0.713 | 0.566 | 0.403 | 0.992 | 0.539
N fixed | 1.21 | 1.57 | 1.24 | 1.16 | 1.46 | 1.23 | 0.74 | 0.975 | 0.869
P fixed | 0.416 | 1.11 | 0.828 | 1.47 | 2.12 | 1.1 | 1.33 | 1.42 | 1
Q fixed | 1.33 | 1.16 | 1.19 | 1.14 | 1.46 | 1.07 | 0.856 | 1.08 | 0.926
R fixed | 0.955 | 1.44 | 1.53 | 0.79 | 1 | 2.1 | 5.83 | 1.57 | 2.42
V fixed | 0.828 | 0.7 | 0.69 | 0.859 | 0.697 | 0.456 | 0.372 | 0.657 | 0.714
W fixed | 0.553 | 0.981 | 0.931 | 0.934 | 0.529 | 0.905 | 0.575 | 0.775 | 0.961
Y fixed | 0.634 | 0.824 | 0.87 | 0.795 | 0.926 | 1.19 | 0.409 | 0.744 | 0.688
pThr fixed | 1.27 | 1.04 | 1.04 | 1.68 | 0.585 | 0.694 | 0.78 | 0.779 | 0.67
pTyr fixed | 0.783 | 0.886 | 1.11 | 1.02 | 1.21 | 0.975 | 0.904 | 1.03 | 1.03

PRKCB, construct: Full length (from UniProt P05771)
relative phosphorylation
Conditions | at +1 | at +2 | at +3 | at +4 | at -1 | at -2 | at -3 | at -4 | at -5
A fixed | 0.614 | 0.584 | 0.815 | 1.08 | 1.16 | 1.17 | 0.836 | 1.3 | 1.35
D fixed | 0.203 | 0.219 | 0.509 | 0.604 | 0.516 | 0.531 | 0.379 | 0.694 | 0.677
E fixed | 0.288 | 0.177 | 0.503 | 0.546 | 0.489 | 0.468 | 0.438 | 0.654 | 0.676
F fixed | 0.881 | 0.35 | 0.602 | 0.636 | 0.435 | 0.597 | 0.639 | 0.72 | 0.947
G fixed | 0.585 | 0.365 | 1.09 | 1.22 | 1.65 | 1.37 | 0.95 | 1.57 | 1.45
H fixed | 0.861 | 1.39 | 1.36 | 1.37 | 1.24 | 1.23 | 1.47 | 1.17 | 1.26
I fixed | 1.05 | 0.413 | 0.529 | 0.559 | 0.214 | 0.323 | 0.214 | 0.393 | 0.452
K fixed | 2.49 | 3.97 | 2.36 | 2.46 | 2.15 | 1.93 | 1.91 | 1.64 | 1.67
L fixed | 0.864 | 0.469 | 0.796 | 0.644 | 0.563 | 0.448 | 0.371 | 0.517 | 0.71
M fixed | 1.61 | 0.604 | 0.68 | 0.705 | 0.779 | 0.662 | 0.606 | 0.898 | 0.684
N fixed | 0.691 | 0.909 | 1.09 | 1.13 | 1.34 | 1.52 | 1.07 | 1.11 | 1.04
P fixed | 0.289 | 0.305 | 0.606 | 1.27 | 1.09 | 0.87 | 0.983 | 1.2 | 1.22
Q fixed | 1.45 | 0.727 | 1.1 | 1.2 | 1.04 | 1.47 | 1.08 | 1.24 | 1
R fixed | 2.18 | 4.58 | 2.22 | 1.46 | 2.25 | 2.3 | 4.21 | 1.78 | 1.44
V fixed | 1.11 | 0.443 | 0.627 | 0.683 | 0.496 | 0.462 | 0.354 | 0.504 | 0.695
W fixed | 0.813 | 0.627 | 1.03 | 0.83 | 0.556 | 0.933 | 0.68 | 0.933 | 1.19
Y fixed | 1.03 | 0.86 | 1.07 | 0.618 | 1.04 | 0.717 | 0.805 | 0.679 | 0.531
pThr fixed | 0.842 | 0.433 | 0.621 | 0.672 | 0.372 | 0.756 | 0.666 | 0.932 | 0.844
pTyr fixed | 0.519 | 0.272 | 0.651 | 0.434 | 0.732 | 0.712 | 0.693 | 0.806 | 0.983

MYLK2, construct: Full length (from UniProt Q9H1R3)
relative phosphorylation
Conditions | at +1 | at +2 | at +3 | at +4 | at -1 | at -2 | at -3 | at -4 | at -5
A fixed | 1.17 | 0.898 | 0.72 | 1.02 | 1 | 1.55 | 0.879 | 1.34 | 1.37
D fixed | 0.541 | 0.852 | 1.08 | 1.07 | 0.654 | 0.423 | 0.467 | 0.847 | 0.683
E fixed | 0.705 | 1.5 | 0.72 | 1.38 | 0.659 | 0.454 | 0.605 | 1.03 | 0.644
F fixed | 0.621 | 1.42 | 1.62 | 0.804 | 0.486 | 0.461 | 0.464 | 0.852 | 0.932
G fixed | 1.19 | 0.696 | 1.03 | 0.936 | 0.922 | 1.37 | 1.45 | 1.46 | 1.5
H fixed | 0.988 | 1.02 | 0.825 | 0.938 | 1.49 | 1.08 | 1.02 | 0.942 | 1.1
I fixed | 0.784 | 1.28 | 1.37 | 1.36 | 0.556 | 0.471 | 0.412 | 0.639 | 0.657
K fixed | 1.5 | 0.664 | 0.482 | 0.898 | 1.89 | 1.44 | 2.17 | 1.03 | 1.19
L fixed | 0.785 | 1.15 | 2.01 | 1.17 | 0.885 | 0.461 | 0.421 | 0.702 | 0.723
M fixed | 1.27 | 1.06 | 1.13 | 0.925 | 0.891 | 0.512 | 0.474 | 0.836 | 0.739
N fixed | 0.945 | 0.783 | 0.84 | 0.736 | 1.41 | 0.819 | 0.85 | 0.894 | 0.884
P fixed | 0.323 | 0.785 | 0.8 | 1.36 | 1.37 | 1 | 1.35 | 1.53 | 1.62
Q fixed | 1.81 | 0.757 | 0.557 | 0.973 | 1.35 | 0.806 | 0.894 | 1.01 | 0.834
R fixed | 1.68 | 0.575 | 0.525 | 0.58 | 1.13 | 4.52 | 3.77 | 1.28 | 0.929
V fixed | 1.07 | 1.21 | 0.919 | 1.23 | 0.688 | 0.558 | 0.477 | 0.753 | 0.853
W fixed | 0.902 | 1.31 | 1.6 | 0.903 | 0.658 | 0.527 | 0.691 | 1.01 | 1.25
Y fixed | 0.721 | 1.04 | 0.78 | 0.715 | 0.958 | 0.529 | 0.6 | 0.843 | 1.08
pThr fixed | 1.71 | 1.59 | 0.794 | 1.43 | 0.612 | 0.958 | 0.847 | 1.05 | 1.06
pTyr fixed | 0.726 | 1.47 | 0.977 | 1.37 | 0.886 | 0.674 | 0.819 | 0.934 | 0.84
